Molecular target: Human MET ECD (extracellular domain) containing a FLIS tag (Homo sapiens, UniProt P08581)
Experiment: cell-based or functional assay

Chain of Human MET ECD (extracellular domain) containing a FLIS tag (P08581 25-932): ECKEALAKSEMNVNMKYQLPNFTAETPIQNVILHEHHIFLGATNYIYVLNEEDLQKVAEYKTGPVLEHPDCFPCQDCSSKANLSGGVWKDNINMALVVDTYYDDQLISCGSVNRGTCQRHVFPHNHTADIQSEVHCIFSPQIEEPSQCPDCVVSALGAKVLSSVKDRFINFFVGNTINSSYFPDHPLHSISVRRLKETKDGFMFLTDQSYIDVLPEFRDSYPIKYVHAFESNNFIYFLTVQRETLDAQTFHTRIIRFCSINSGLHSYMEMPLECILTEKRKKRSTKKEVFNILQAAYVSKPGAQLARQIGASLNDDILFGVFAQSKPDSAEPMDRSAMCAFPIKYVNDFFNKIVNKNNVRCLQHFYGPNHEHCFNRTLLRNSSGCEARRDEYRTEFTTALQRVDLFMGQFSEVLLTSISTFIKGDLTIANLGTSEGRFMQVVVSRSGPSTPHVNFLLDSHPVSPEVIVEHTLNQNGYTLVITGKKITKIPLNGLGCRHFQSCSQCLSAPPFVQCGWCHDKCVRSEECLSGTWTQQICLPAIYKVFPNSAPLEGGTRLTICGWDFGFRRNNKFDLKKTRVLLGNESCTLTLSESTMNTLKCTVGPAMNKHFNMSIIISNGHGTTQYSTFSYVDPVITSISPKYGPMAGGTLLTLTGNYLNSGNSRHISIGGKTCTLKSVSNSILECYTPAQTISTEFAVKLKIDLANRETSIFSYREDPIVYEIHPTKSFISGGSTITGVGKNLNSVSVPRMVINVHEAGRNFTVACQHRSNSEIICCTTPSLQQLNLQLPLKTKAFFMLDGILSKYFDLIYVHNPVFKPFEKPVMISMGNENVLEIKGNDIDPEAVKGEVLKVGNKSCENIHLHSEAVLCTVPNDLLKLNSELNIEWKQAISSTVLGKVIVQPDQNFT

phospho-AKT activity levels in Caki-1 cells (MSD ELISA), various doses of antibody for 15 minutes: > 8 fold
B1: IgG1 MET antibody (variable regions from LY2875358 on human IgG1 constant regions) (antibody, V domains shown)
VH: QVQLVQSGAEVKKPGASVKVSCKASGYTFTDYYMHWVRQAPGQGLEWMGRVNPNRRGTTYNQKFEGRVTMTTDTSTSTAYMELRSLRSDDTAVYYCARANWLDYWGQGTTVTVSS
VL: DIQMTQSPSSLSASVGDRVTITCSVSSSVSSIYLHWYQQKPGKAPKLLIYSTSNLASGVPSRFSGSGSGTDFTLTISSLQPEDFATYYCQVYSGYPLTFGGGTKVEIK

Source: article PMC5391116 (PLoS ONE, 2017)
